Targets include VviERF6L7-c (Vitis vinifera cv. Cardinal, UniProt A0A1L6BXF1 1-277); VviERF069-c (Vitis vinifera cv. Cardinal, UniProt A0A1L6BXE7 1-285); VviERF10-c (Vitis vinifera cv. Cardinal, UniProt F6HIF5 1-204); VviERF2-c (Vitis vinifera cv. Cardinal, UniProt A0A1L6BXE6 1-282); VviERF11-c (Vitis vinifera cv. Cardinal, UniProt A0A1L6BXF0 1-220).
Holding throughout (experiment): EMSA; EMSA: 2 ug protein in 20 ul, 80 nM biotin probe, 50 ng/ul poly(dI-dC), 2.5% glycerol, 1x binding buffer (composition and pH not given), room temperature 20 min; 6% native PAGE, 0.5x TBE; competition 500x unlabeled probe (50 uM unlabeled DNA listed)
Common to all, as to conditions: protein: recombinant; tags: N-terminal His (pTrcHisA); label: 3' biotin

Sequence of VviERF11-c (A0A1L6BXF0 entry or part of it): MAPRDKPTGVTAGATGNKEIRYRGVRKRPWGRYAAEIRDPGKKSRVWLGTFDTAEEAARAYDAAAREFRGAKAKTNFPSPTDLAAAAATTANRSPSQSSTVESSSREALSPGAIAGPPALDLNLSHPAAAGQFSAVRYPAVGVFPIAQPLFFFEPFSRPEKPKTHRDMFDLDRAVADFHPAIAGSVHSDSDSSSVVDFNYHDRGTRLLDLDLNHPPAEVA
Sequence of VviERF2-c (A0A1L6BXE6 entry or part of it): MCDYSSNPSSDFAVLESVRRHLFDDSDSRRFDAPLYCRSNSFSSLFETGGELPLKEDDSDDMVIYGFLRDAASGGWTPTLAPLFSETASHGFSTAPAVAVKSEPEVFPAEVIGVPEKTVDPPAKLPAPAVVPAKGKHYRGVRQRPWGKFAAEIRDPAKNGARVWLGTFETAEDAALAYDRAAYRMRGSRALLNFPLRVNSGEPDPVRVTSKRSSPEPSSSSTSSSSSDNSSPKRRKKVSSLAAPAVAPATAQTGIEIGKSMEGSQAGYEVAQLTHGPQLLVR
Sequence of VviERF6L7-c (A0A1L6BXF1 entry or part of it): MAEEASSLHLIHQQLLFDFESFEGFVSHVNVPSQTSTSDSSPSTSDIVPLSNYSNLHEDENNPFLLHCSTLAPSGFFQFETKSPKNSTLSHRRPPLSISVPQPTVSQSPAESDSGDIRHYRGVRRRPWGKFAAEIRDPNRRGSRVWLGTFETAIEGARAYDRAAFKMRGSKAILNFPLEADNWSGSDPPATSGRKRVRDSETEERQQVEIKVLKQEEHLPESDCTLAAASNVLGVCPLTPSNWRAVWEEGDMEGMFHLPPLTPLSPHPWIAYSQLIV
Sequence of VviERF069-c (A0A1L6BXE7 entry or part of it): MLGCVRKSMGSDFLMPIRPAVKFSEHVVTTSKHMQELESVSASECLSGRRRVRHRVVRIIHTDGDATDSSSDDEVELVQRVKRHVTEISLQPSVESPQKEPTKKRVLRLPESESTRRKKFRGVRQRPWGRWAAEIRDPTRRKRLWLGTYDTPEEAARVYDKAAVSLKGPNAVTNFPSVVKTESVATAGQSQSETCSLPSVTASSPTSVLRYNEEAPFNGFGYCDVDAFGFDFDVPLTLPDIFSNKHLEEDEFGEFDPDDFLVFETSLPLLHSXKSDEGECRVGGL
Sequence of VviERF10-c (F6HIF5 entry or part of it): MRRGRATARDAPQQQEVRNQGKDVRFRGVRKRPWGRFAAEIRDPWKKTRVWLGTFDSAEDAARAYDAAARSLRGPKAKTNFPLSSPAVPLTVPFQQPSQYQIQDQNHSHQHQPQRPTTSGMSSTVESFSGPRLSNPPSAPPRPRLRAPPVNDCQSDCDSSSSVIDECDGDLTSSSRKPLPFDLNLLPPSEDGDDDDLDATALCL

B1: Nt-chit GCC box (dsDNA)
DNA 1: AAGAGCCGCCACTA
DNA 2: TAGTGGCGGCTCTT
In the case of B1, the binding result with VviERF6L7-c, in the data set with VviERF069-c, in the data set with VviERF10-c, with VviERF2-c and with VviERF11-c was “no binding” in each case.

B2: Le-osmo GCC box (dsDNA)
DNA 1: AAAAGCCGCCACAC
DNA 2: GTGTGGCGGCTTTT
For B2, the binding result with VviERF6L7-c, with VviERF069-c, in the data set with VviERF10-c, with VviERF2-c and with VviERF11-c was “no binding” in each case.

B3: Vcchit1b GCC box (dsDNA)
DNA 1: AAAAGCCGCCCACG
DNA 2: CGTGGGCGGCTTTT
On to B3, for which the binding result in the data set with VviERF2-c and with VviERF11-c was “binds” each time.

B4: Vcgns1 GCC box (dsDNA)
DNA 1: TGGAGCCGCCGGGA
DNA 2: TCCCGGCGGCTCCA
Regarding B4, the binding result with VviERF6L7-c was “no binding”.

The values are drawn from PMC5124697, “Expression Profiles and DNA-Binding Affinity of Five ERF Genes in Bunches of Vitis vinifera cv. Cardinal Treated with High Levels of CO2 at Low Temperature”.
